Laboratory results reported in patent US20100261660A1 (published 2010).
Where a chain is given by its changes, count along the chain named.

B1: Round 1 (R1) CTLA4BP-5 (ligand)
chain: VIHVTKEVKEVATLSCGHNVSVEELAQTRIHWQKEKKMVLTMMSGDMNIWPEYKNRTIFDITNNLSIVILALRPSDEGTYECVVLKYEKDAFKREHLAEVTLSVKADFPTPSISDFEIPPSNIRRIICSTSGGFPEPHLSWLENGEELNAINTTVSQDPGTELYTVSSKLDFNMTTNHSFMCLIKYGHLRVNQTFNWNTPKQEHFPDNLLPSWAITLISVNGIFVICCLTYCFAPRCRERRRNERLRRESVRPV
notes: also called R1-5
B2: Round 2 CTLA4BP 5x2-b7 (ligand)
chain: B1 chain with S114T, T176A, M181V, V220A
B3: Round 2 CTLA4BP 2x1-f10 (ligand)
chain: B1 chain with T101M, S114T, H138R, S140A, L142M, N144D, T165A, F224S, R252C
B4: Round 1 CTLA4BP-11 (ligand)
chain: B1 chain with V4M, H31Y, T101M, S114T, S140F, G160E, T165A, P200T, Y231H, R252H
notes: also called R1-11; R1 CTLA-4BP-11
B5: Round 2 CTLA4BP 2x4-h11 (ligand)
chain: B1 chain with H31Y, K86E, T101M, T165A, T230A, E239G
B6: Round 1 CTLA4BP-27 (ligand)
chain: B1 chain with H18L, H31Y, T101M, G160E, T176A, M181V, R245T
notes: also called R1-27; R1 CTLA-4BP-27
B7: Round 2 CTLA4BP 2x1-g8 (ligand)
chain: B1 chain with I67V, S114T, H178R, M181V, R241K, R242S
B8: Round 1 CTLA4BP-13 (ligand)
chain: VIHVTKEVKEVATLSCGHNVSVEELAQTRIYWQKEKKMVLTMMSGDMNIWPEYKNRTIFDITNNLSIVILALRPSDEGTYECVVLKYEKDAFKREHLAEVTLSVKADFPTPSISDFEIPTSNIRRIICSTSGGFPEPHLFGLENGEEINAINTTASQDPETELYTVSSKLDFNMTPNRSFVCLIKYGHLRVNQTFNWNTPKQEHFPDNLLPSWAITLISANGIFVICCLTYCFAPRCRERKSNERLRRESVRPV
notes: also called R1-13; R1 CTLA-4BP-13
B9: Round 2 CTLA4BP 5x1-f1 (ligand)
chain: B1 chain with H18L, H31Y, Y53H, S114T, S140F, V155A, G160E, T176A, M181V, R245T
B10: Round 2 CTLA4BP 2x2-f1 (ligand)
chain: B1 chain with P74L, P120T, S140F, V155A, G160E, H178R, M181V
B11: Round 2 CTLA4BP 2x1-b12 (ligand)
chain: VIHMTKEVKEVATLSCGHNVSVEELAQTRIYWQKEKKMVLTMMSGDMNIWPEYKNRTIFDITNNLSIVILALRPSDEGTYECVALKYEKDAFKQEHLAEVTLSVKADFPTPSISDFEIPPSNIRRIICSTSGGFPEPRLAWMEDGEELNAINTTVSQDPETELYTVSSKLDFNMTANHSFMCLIKYGHLRVNQTFNWNTPKQEHFPDNLLPSWAITLISVNGIFVICCLTYCFAPRCRERRRNERLRRESVCPV
B12: Round 2 CTLA4BP 5x1-d7 (ligand)
chain: VIHVTKEVKEVATLSCGHNVPVEELAQTRIYWQKEKKMVLTMMSGDMNIWPEYKNRTIFDITNNLSIVILALRPSDEGTYGCVVLEYEKDAFKREHLAEVMLSVKADFPTPSITDLEIPPSNIRRIICSTSGGFPEPHLFWLENGEELNAINTTASQDPETELYAVSSKLDFNMTTNHSFMCLIKYGHLRVNQTFNWNTPKQEHFPDNLLPSWAITLISANGIFVICCLTYCFAPRCRERRRNERLRRESVHPV
B13: Round 2 CTLA4BP 2x2-f12 (ligand)
chain: B1 chain with E81G, K86E, T101M, G160E, T165A, V191A
B14: Round 2 CTLA4BP 5x2-e12 (ligand)
chain: B1 chain with D46G, P120T, N152S, T165A, H178R, M181V, P200T
B15: Round 2 CTLA4BP 5x2-d7 (ligand)
chain: B1 chain with V4M, H18L, T101M, G160E, E162G
B16: Round 2 CTLA4BP 2x1-h12 (ligand)
chain: B1 chain with H18L, T101M, S114T, V220A, R241K, R242S, R252C
B17: Round 2 CTLA4BP 2x1-c4 (ligand)
chain: B1 chain with S15P, T101M, S114T, S140F, T165A, S179N
B18: Round 2 CTLA4 A-B11-5 (ligand)
chain: ITPKSATKRVKETVMLSCDYSTSTEELTSLRIYWQKDSKMVLAILPGKVQVWPEYKNRTITDMNDNPRIVILALRLSDSGTYTCVIQKPDLKGAYKLEHLTSVRLMIRADFPVPTINDLGNPSPNIRRLICSTSGGFPRPHLYWLENGEELNATNTTLSQDPETKLYMISSELDFNMTSNHSFLCLVKYGDLTVSQTFYWQESKPTPSANQHLTWTIIIPVSAFGISVIIAVILTCLTCRNAAIRRQRRENEVEMQSCSQSP
B19: Round 2 CTLA4 A-F6-9 (ligand)
chain: B18 chain with A6V
B20: Round 2 CTLA4 A-G8-1 (ligand)
chain: B18 chain with A6V, S21N, R75P

Target: T1, Soluble CTLA-4-Ig (extracellular domain of human CTLA-4 fused to the Fc portion of human IgG1) (human, UniProt P16410 36-161, FITC-conjugated in the FACS binding assays)
T1 construct: extracellular domain; bought from R&D Systems; also called sCTLA-4-Ig; CTLA-4-Ig Fc; not shown: Fc portion of human IgG1
Assay: competitive FACS on transfected cells, FITC-sCTLA-4-Ig with biotin-sCD28-Ig; grade 0-2 of CTLA-4/CD28 ratio vs WT hB7-1

T1 sequence (P16410 36-161): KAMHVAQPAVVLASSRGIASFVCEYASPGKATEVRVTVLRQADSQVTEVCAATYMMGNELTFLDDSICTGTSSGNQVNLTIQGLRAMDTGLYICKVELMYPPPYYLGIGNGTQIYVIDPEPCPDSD

Binding Score	Binder
2	B1
1	B2
1	B3
1	B4
0	B5
1	B6
1	B7
1	B8
1	B9
1	B10
1	B11
1	B12
1	B13
0	B14
1	B15
1	B16
1	B17
1	B18
1	B19
1	B20
